Substrate in the data set: N[C@@H](Cc1ccc(O)cc1)C(=O)O
Nature of the data set: purified protein. The data set is classed as biochemical, Arabidopsis thaliana. As to conditions: 0-8 mM tyrosine, 100 mM alpha-ketoglutarate, 0.2 mM PLP, 100 mM Tris-HCl pH 8.5, 30 C, 5 min, constant not given in text, figure only.

B1: TAT1^A (accession CAM-61) (Arabidopsis thaliana) (protein)
chain: MENGATTTSTITIKGILSLLMESITTEEDEGGKRVISLGMGDPTLYSCFRTTQVSLQAVSDSLLSNKFHGYSPTVGLPQARRAIAEYLSRDLPYKLSQDDVFITSGCTQAIDVALSMLARPRANILLPRPGFPIYELCAKFRHLEVRYVDLLPENGWEIDLDAVEALADENTVALVVINPGNPCGNVYSYQHLMKIAESAKKLGFLVIADEVYGHLAFGSKPFVPMGVFGSIVPVLTLGSLSKRWIVPGWRLGWFVTTDPSGSFKDPKIIERFKKYFDILGGPATFIQAAVPTILEQTDESFFKKTLNSLKNSSDICCDWIKEIPCIDSSHRPEGSMAMMVKLNLSLLEDVSDDIDFCFKLAREESVILLPGTAVGLKNWLRITFAADATSIEEAFKRIKCFYLRHAKTQYPTI
Turning to B1, the Km – broadly, the substrate concentration at which the rate is half of its maximum – was 410 ± 30 µM and the kcat (in general, the maximal rate divided by the concentration of active sites) was found to be 45.85 ± 0.88 s⁻¹.

B2: TAT1 (Col-0, At5g53970.1; positive control) (Arabidopsis thaliana) (protein)
chain: B1 chain
For B2, the Km amounted to 390 ± 60 µM and the kcat is 47.84 ± 1.72 s⁻¹.

The values above are taken from PMC8774053, “Genome-wide association of the metabolic shifts underpinning dark-induced senescence in Arabidopsis” (The Plant Cell, 2021).
